{"source": "paper PMC9896449", "about": "(Nature Communications, 2023)", "binders": {"B1": {"name": "SARS-CoV-1 RBD (domain or fragment)", "chain": "not shown"}}, "molecular_target": "ShAb01 (nurse shark (Ginglymostoma cirratum))", "experiment": "BLI", "conditions": "both partners purified"}
{"binder": "B1", "values": [{"measurement": "Kd", "value": 198, "unit": "nM"}]}
